Results on one molecule are retold here after patent publication US6670114 (N V INNOGENETICS, dated 2003).

The target in this test is T1, LDL (purified human low-density lipoprotein, Cappel) (human, UniProt P04114 28-4563).
T1 construct: This is a lipoprotein particle, not a single protein; also called solid phase LDL
Nature of the test: ELISA: biotinylated envelope protein on coated LDL, streptavidin-peroxidase. (In general: In an ELISA, binding on a coated surface is turned into a signal by an enzyme label.)

B1: E2s (recombinant truncated HCV envelope protein E2, aa 384-673, genotype 1b) (other)
chain: HTRVSGGAAASNTRGLVSLFSPGSAQKIQLVNTNGSWHINRTALNCNDSLQTGFFAALFYKHKFNSSGCPERLASCRSIDKFAQGWGPLTYTEPNSSDQRPYCWHYAPRPCGIVPASQVCGPVYCFTPSPVVVGTTDRFGVPTYNWGANDSDVLILNNTRPPRGNWFGCTWMNGTGFTKTCGGPPCNIGGAGNNTLTCPTDCFRKHPEATYARCGSGPWLTPRCMVHYPYRLWHYPCTVNFTIFKVRMYVGGVEHRFGAACNWTRGERCDLEDRDRSELSPLLLSTTEWQ
modifications: biotinylated (sites not given)
notes: also called biotinylated E2
Regarding B1, the binding result is “no binding”.
